Three molecules from paper PMC9811555 (Current protocols, 2022) can be followed below.

The target of experiment [1] is T1, H2B-mCherry-VHH05 (VHH05 tag, identical to a stretch of …, UniProt Q9Y385).
T1 chain: QADQEAKELARQIS
Description: far-Western, overlay or dot blot.

The target in experiment [2] is T2, VHH05-REPTOR-127D01 (VHH05 and 127D01 tags (human UBE2J1 and …, UniProt Q9Y385;P25025)).
T2 chain 1: QADQEAKELARQIS
T2 chain 2: SFEDFWKGED
Description: immunostaining of cells or tissue.

Experiment [3] deals with T3, H2B-mCherry-127D01 (127D01 tag, identical to a stretch of …, UniProt P25025).
T3 chain: SFEDFWKGED
Briefly: far-Western, overlay or dot blot.

B1: NbVHH05-HA-His (VHH)
VHH: QVQLQESGGGLVQPGGSLRLSCAASGFVFENSAMAWYRQAPGKERELIAVIGTTFIKLAESVKGRFTISRDNAKSTVYLQMNNLKPEDTAVYYCSKSGAYWGQGTQVTVSS
As to B1, the binding result in experiment [1] and in experiment [2] was “binds” throughout.

B2: Nb127D01-HA-His (VHH)
VHH: EVQLVESGGGLVQAGESLRLSCAASGSTFDFKVMGWYRQPPGKQREGVAAIRLSGNMHYAESVKGRFAISKANAKNTVYLQMNSLRPEDTAVYYCKVNIRGQDYWGQGTQVTVSS
Take B2: the binding result in experiment [3] is recorded as “binds”.

B3: Nb127D01-ALFA-His (VHH)
VHH: EVQLVESGGGLVQAGESLRLSCAASGSTFDFKVMGWYRQPPGKQREGVAAIRLSGNMHYAESVKGRFAISKANAKNTVYLQMNSLRPEDTAVYYCKVNIRGQDYWGQGTQVTVSS
Consider B3, for which, in experiment [2], the binding result is reported as “binds”.
